In patent US20120219503A1 (GENE TECHNO SCIENCE, published 2012):
Positions count from the first letter of the chain named. No end group written: not given here.

Assays:
hOPN5-BSA [1] = target: T1, hOPN5-BSA (also: conjugated to BSA, coupling site not given here); test: ELISA, hOPN5-BSA coated on the plate
T1 construct: RGD-containing synthetic peptide coupled to the carrier BSA and coated on ELISA or adhesion plates
T1 peptide: CVDTYDGRGDSVVYGLRS
Method: (§1) Binding of Ch33E10 and Hu33E10-VH1/VL6 IgG1/κ antibodies to hOPN5-BSA was examined by ELISA. As an antigen, synthetic oligopeptide ([…] provided by Gene Techno Science) conjugated to bovine serum albumin (hOPN5-BSA) was used. In a typical experiment, an ELISA plate was coated with 100 μl/well of 1 μg/ml hOPN5-BSA in 0.2 M Na₂CO₃ buffer (pH 9.4) overnight at 4° C., washed with Wash Buffer, and blocked with 300 μl/well of Blocking Buffer for 1 hr at room temperature. After washing with Wash Buffer, samples appropriately diluted in ELISA Buffer were applied at 100 μl/well in the ELISA plate. After incubating the ELISA plate overnight at 4° C. and washing with Wash Buffer, bound antibodies were detected using 100 μl/well of 1/2,000-diluted HRP-conjugated goat anti-human γ chain polyclonal antibody (SouthernBiotech). After incubating for 1 hr at room temperature and washing with Wash Buffer, color development was performed by adding 100 μl/well of ABTS substrate and stopped with 100 μl/well of 2% oxalic acid. Absorbance was read at 405 nm.
Binding of Hu33E10-VH5/VL6, Hu33E10-VH7/VL6 and Hu33E10-VH7.8/VL6 antibodies to hOPN5-BSA was compared to that of Ch33E10 by ELISA as described in Section 5. […] In repeated experiments, Hu33E10-VH7/VL6 and Hu33E10-VH7.8/VL6 behaved similarly to each other for binding to hOPN5-BSA.

hOPN5-BSA [2] = target: T1, hOPN5-BSA; test: ELISA, hOPN5-BSA coated on the plate, two independent experiments
Method: FIGS. 21A & 21B show ELISA analysis of the binding of Ch33E10 and Hu33E10-VH7/VLv2 IgG1/κ antibodies to hOPN5-BSA. Purified Ch33E10 and Hu33E10-VH7/VLv2 antibodies were tested at various concentrations, starting at 200 μg/ml (FIG. 21A) or 100 μg/ml (FIG. 21B) and serial 2-fold dilutions, for binding to hOPN5-BSA. The results of two independent experiments in duplicate (FIGS. 21A & 21B) are shown.
as §1, with “After incubating for 1 hr at room temperature and washing with Wash Buffer, color development was performed by adding 100 μl/well of ABTS substrate and stopped with 100 μl/well of 2% oxalic acid.” left out, “nm. […]” for “nm.”

hOPN5-BSA [3] = target: T1, hOPN5-BSA; test: ELISA, hOPN5-BSA coated on the plate (conclusion)

B1: Ch33E10 (chimeric 33E10 IgG1/κ antibody) (antibody, V domains shown)
VH: EVKLVESGGGLVQPGGSLSLSCAASGFTFTDYYMIWVRQPPGKALEWLGFIRNKANGYTTEYSASVKGRFTISRDNSQSILYLQMNALRAEDSATYYCARGAYWGQGTLVTVSA
VL: DVLMTQTPLSLPVSLGDQASISCRSSQSIVHSNGNTYLEWYLQKPGQSPKLLIYRVSNRFSGVPDRFSGSGSGTDFTLKISRVEAEDLGVYYCFQGSFVPWTFGGGTKLEIK
notes: also called product of NS0-Ch33E10 2C11 (L4-2C11)
B1: binds (hOPN5-BSA [1]).

B2: Hu33E10-VH1/VL6 IgG1/κ antibody (antibody, V domains shown)
VH: EVQLVESGGGLVQPGGSLRLSCAASGFTFTDYYMIWVRQAPGKGLEWLGFIRNKANGYTTEYSASVKGRFTISRDNAKNSLYLQMNSLRAEDTAVYYCARGAYWGQGTMVTVSS
VL: DIVMTQSPLSLPVTPGEPASISCRSSQSIVHSNGNTYLEWYLQKPGQSPQLLIYRVSNRFSGVPDRFSGSGSGTDFTLKISRVEAEDVGVYYCFQGSFVPWTFGQGTKVEIK
notes: Human IgG1/κ form; also called product of NS0-Hu33E10-2 #22
With B2 the “fold weaker binding than Ch33E10” value (hOPN5-BSA [1]) was about 100 fold.

B3: Hu33E10-VH7/VLv2 IgG1/κ antibody (antibody, V domains shown)
VH: B2 VH with N79S, S80I
VL: DIVMTQSPDSLAVSLGERATISCRSSQSIVHSNGNTYLEWYLQKPGQPPKLLIYRVSNRFSGVPDRFSGSGSGTDFTLTISSLQAEDVAVYYCFQGSFVPWTFGQGTKVEIKR
notes: also called SP2-1; SP-2
For B3, the “fold difference of binding affinity from Ch33E10” value (hOPN5-BSA [2]) was at most 2 fold and the “fold difference of affinity from Ch33E10” value (hOPN5-BSA [3]) was at most 3 fold.

B4: Hu33E10-VH7.8/VL6 IgG1/κ antibody (antibody, V domains shown)
VH: B2 VH with A77S, N79S, S80I
VL: DIVMTQSPLSLPVTPGEPASISCRSSQSIVHSNGNTYLEWYLQKPGQSPQLLIYRVSNRFSGVPDRFSGSGSGTDFTLKISRVEAEDVGVYYCFQGSFVPWTFGQGTKVEIKR
notes: also called EJ3-1-1; product of NS0-Hu33E10-5 1E5 (EJ3-3 1E5)
In the case of B4, the “fold lower affinity than Ch33E10” value (hOPN5-BSA [1]) is reported as about 3 fold.
